Test results as given in a protein production outcome set (Wang et al. 2014).

Assay: label from the status in PepcDB records
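Further: failed if final PepcDB status was selected cloned or expressed and not failed if soluble or beyond.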

| Sequence | protein production |
| --- | --- |
| MELSSSESLGFSKILKERVKVKPMNKYAILAVLLWSTVASAFKLTLSRLDTISMLFYSSLTSTVIFLLANLKDIKTFSIKANLNSVFFGFINPFLYYLVLFSAYSILPAQEAQALNYTWPIILVIFSSAFLGQRLSERDFLGVIIGFLGALVVGTRGNLSSLHFANPMGDLLALCSAIIWAIYWILNLRDPRKAEVKMMWNFIFGFLYISILGVIEGIKFDPYGVLGAIYVGTFEMGLTFLLWLKALESEEAGKVASLIYLTPVLSLLFISIVVGEKILGSTIVGLALILLGIALSRR | failed |
| MELTALDKLEIMELAARFEMSLDKEDVENYLATFASDGALQGFWGIAKGKEELRQGFYAMLDTFARGKRHCSSNAIIQGNYDEATMESYLTVVNREDLNRAGSAFVKDQVRKINGKWYLILRQIEVDPSLPLLQQSQQAGANA | not failed |
| MELTQTHLLPVPLQTAWDALNDPAVLQRCIPGCESVTAATEHAYDIAMTAAVGPVKARFKGRMELADIVPPRSYTLHFDGQGGAAGFGKGTAQVQLAPEGPTVTRLSYTAHAQVGGKLAQIGSRLIDGAARKLADEFFQRFASEFGPAGGTGPLDAAPADQAIPDLASGELAAHGAPRTPLISPAVQPRNPWPWIIVALVAIVAAYLFLHHGA | failed |
| MEMINVFVYGTLRRGGGNHQLIAEYVQSVHEATVKGMLFHLPYGYPAMVDGRGTVRGEILELSNPETALTILDELEGYHGPGQSNEYERITVTAVTADGNKYICYTYVYPEEQREWLEQNAQPIFGGDWMAFLHSKDEVMYFAYGSCMSERDFRRTVPHFEVMGRAVLDDYRLAFTRYSSGRQGGVADIVPSPGDRVEGVLYKISSRYVKDLDWREGVPAGVYRREYIDVQHNGQLVSALTYVVVEKQLDEIAPSESYASIILDEGTSLLSPQYIEQVRRHIETLQKKGR | failed |
| MEMKKMKKMDKMELLKQIMAVDFTIIDLSLYLNTHPMDKEAIAKHNAFVAQSHMLKGQYQKYYGMLTATNSCSPYPWQWIKEPWPWEYDANFRL | failed |
| MEMYFKRMKDEWTGLVEQADPPIRAKAAEIAVAHAHYLSIEFYRIVRIDPHAEEFLSNEQVERQLKSAMERWIINVLSAQVDDVERLIQIQHTVAEVHARIGIPVEIVEMGFRVLKKILYPVIFSSDYSAAEKLQVYHFSINSIDIAMEVMTRAFTFSDSSASKELEHHHHHH | not failed |
| MENDSSIQWEHSHDFGLDNKLHENKVKTVFWLTTVIMVLEIGAGTWSGSMALLADGWHMGTHSAAFLIAIFAYSYAKKHANNKDFSFGTGKVNSLGGFASAIALAIVALMMIVESVQRLLEPQSIHFNEAIVVAIIGLVVNVASVFILHDDHHHHGEHHHDHDHNMKAAYFHVLADTLTSLLAIVALLIGKYVGLIWMDPLMGIVGAIVILRWSYGLIKDSSNVLLDKSVKKSTLEQISKALSKKNTVINDIHVWTIATAHQAAILKVTSAQPLNSDEYEGILREILPQLSHISIEIRHDYSL | failed |
| MENIEYVFEDVVRIYDTDAQGIAHYAAYYRFFTNTIEKFIKEKVGIPYPIVNENLWFVIAESHAIYHRPVKLGDKLTVLLNPKILSNKTIKFEFKVLKDGELTTEGYVIQIAINPKIWKSTEMPKEIMDKLSIK | not failed |
| MENKPDYFHHIEHRKFQSSSKITLWLSLVITMIFTVVEFVGGIVSNSLALLSDSFHMLSDVLALGLSMVAIYFSSKPPTKNYTYGFLRLEIIVAFLNGLALIVISLGIMYEGIMRIIHPRPVESGIMILIAFIGLIANIVLTIILMISLKKENNINIQSALWHFIGDLLNSLGIIVAFVLIHFTGWNIVDPIISILISLIILRGGYKIIKNASKVLMERVPDRYDTDEIMGAMKDVEGVIDIHEFHLWSVTTNQSSLSAHVVLSDDYIKSPYATINKVSDLLKTQYGLEHVTLQIENINLNHLDEEYFKQLQE | failed |
| MENLALTTLLLPFIGALVVSFSPQRRAAEWGVLFAALTTLCMLSLISAFYQADKVAVTLTLVNVGDVALFGLVIDRVSTLILFVVVFLGLLVTIYSTGYLTDKNREHPHNGTNRYYAFLLVFIGAMAGLVLSSTLLGQLLFFEITGGCSWALISYYQSDKAQRSALKALLITHIGSLGLYLAAATLFLQTGTFALSAMSELHGDARYLVYGGILFAAWGKSAQLPMQAWLPDAMEAPTPISAYLHAASMVKVGVYIFARAIIDGGNIPHVIGGVGMVMALVTILYGFLMYLPQQDMKRLLAWSTITQLGWMFFGLSLSIFGSRLALEGSIAYIVNHAFAKSLFFLVAGALSYSCGTRLLPRLRGVLHTLPLPGVGFCVAALAITGVPPFNGFFSKFPLFAAGFALSVEYWILLPAMILLMIESVASFAWFIRWFGRVVPGKPSEAVADAAPLPGSMRLVLIVLIVMSLISSVIAATWLQ | failed |
| MENLKNVAPIEDFNWDAYENGEAVTSASHEDLEKAYDGTLNKVNDREVVDGTVIAMNKREVVVNIGYKSDGIIPLNEFRYNPDLKVGDTVEVYIENQEDKKGQLVLSHRKARATRSWDRVNAALENEEIIKGFIKCRTKGGMIVDVFGIEAFLPGSQIDVKPIRDYDVFVGKTMEFKVVKINQEFKNVVVSHKALIEAELEQQKKEIIGKLEKGQVLEGTVKNITSYGVFIDLGGVDGLIHITDLSWGRVSDPKEVVELDQKLNVVILDFDDEKKRIALGLKQLTPHPWDALDTDLKVGDKVKGKVVVMADYGAFIEIATGVEGLIHVSEMSWSQHLRSAQDFMKVGDEVEAVVLTLDREERKMSLGIKQLKQDPWETIEEKYPVGSKHTAKVRNFTNFGVFVEIEEGVDGLIHISDLSWTKKVKHPSEFTQIGADIEVQVLEIDKENRRLSLGHKQLEENPWDVFETVFTVGSVHEGTIIEMLDKGAVVALPYGVEGFATPKHLVKEDGSQAQLDEKLEFKVIEFNKDAKRIILSHSRIFEDVAKAEERAEKKAASGAKKSSNNKREDAPMIQNQAASTTLGDIDALAALKEQLEGKKLEHHHHHH | not failed |
| MENMIVIMAGGRSSRMGAEKPILKVNGKPMILRVYEESTKVGETLVAISKNTPKTRELCIKEGIPLIETPGEGYVEDVRYLLKELGSFVSVSADLPFVKACDIAEVKKAFDGKTSLTGVLPLSKVPTDLRPVVYKGYVIVGLNGVGFEGEKFYELSNPLLALNVNTPEELKLANRIAKLIGLEHHHHHH | failed |
| MENQKMQEPLVYRRILLTVDEDDNTSSERAFRYATTLAHDYDVPLGICSVLESEDINIFDSLTPSKIQAKRKHVEDVVAEYVQLAEQRGVNQVEPLVYEGGDVDDVILEQVIPEFKPDLLVTGADTEFPHSKIAGAIGPRLARKAPISVIVVR | not failed |
| MENRAHALAAGLFILLLGVATVMAVKWFSRDSVSYNHYFLVSAGGAVSGLNPEASVRYRGVNVGKVEEIYFDRENIRNIIVRIAVNHNVVLPGDIYAQLASQGITGLTYIELNDDVADAETKPLQNEARIPLRSSLIKTLSDSLEEILKNSNMAIRQISNLLNEQNQTHISSILSHLEQAVQHYDTLTGQLQKGLQTLPQLSSELTSTFKQTRQVMENTSQVLQKLNQQQGLVDNLTQGSLEMTRTLTSLNETGVAITQSAHKLDQLLNLLEDHPQSLVFGKPPALPGPGEPGFSPPQPGK | failed |
| MENSDETKMSEEILALVDEFQQAWPLEGFGGALEMKGRRLDLQGIRVLKKGPQDGVARSSCYGDCRSEDDEATEWITFQVKRVKKPKGDHKKTPGKKVETGQIENGHRYQANLEITGPKVASPGPQGKKRDYQRLGWPSPDECLKLRWVELTAIVSTWLAVSSKNIDITEHIDFATPIQQPAMEPLCNGNLPTSMHTLDHLHGVSNRASLHYTGESQLTEVLQNLGKDQYPQQSLEQIGTRIAKVLEKSQTSWVLSSMAALYWRVKGQGKKAIDCLRQALHYAPHQMKDVPLISLANILHNAKLWNDAVIVATMAVEIAPHFAVNHFTLGNVYVAMEEFEKALVWYESTLKLQPEFVPAKNRIQTIQCHLMLKKGRRSP | failed |
| MENSLRSTLLDIVKGCIATVALFIAYLELPVIGMLAGVVVPLPALLYDLKRGKWSGLAIVLASALIFMLIAGPAGALLYVLQAGIFSLALPRFLTMGGGPARALASAVAVTVAVITAAAVGYGVTRGVTVEGQVAESLQSSITQAIQLYEKSGVSGADLDELREGMEQAAKSLAQLYPSLFVVGIAMAGGLNLLLLQRFGRRLGLAVPGGSFGKYRNPDHLVWLPICAGFALLAGHDAVTTIALNVLVLTGFLYFIQGMAIIIHLFDRYAAPAFLRYLLYFLLFVQAYLVVAVALFGLLDLWGNFRRPRIPTNL | failed |
| MEPCELSANTVIAHPRALTDKMTLIRDAGPSKFQVFPTPISEQGDAYYDAKRQALYDHYHPLEISPVIPIDEKTKLMEEWWGKTHELLIEGGLTYDAIKKSVANSSIAFREGVSELFEFLEKKEIPVLIFSAGLADVIEEVTLKSISLLELLSYFCCLYNEYAFVAYSHSYQVLRQNLDRTFKNVKIVSNRMVFNDDGQLVSFKGKLIHVLNKNEHALDMAAPLHDRLGVDIGEEDEENVNMKERRNVLLMGDHLGDLRMSDGLDYETRISIGFL | failed |
| MEPRVGNKFRLGRKIGGGSFGEIYLGTNIQTNEEVAIKLENVKTKHPQLLYESKLYKVLQGGTGVPNVKWYGVEGDYNVLVIDLLGPSLEDLFNFCSRKLSLKTVLMLADQMINRIEFVHQKSFLHRDIKPDNFLMGLGRRANQVYVIDFGLAKKYRDSNHQHIPYRENKNLTGTARYASMNTHLGIEQSRRDDLESLGFVLMYFLKGSLPWQGLKAGNKKQKYEKISEKKVSTSIEALCRGYPSEFASYFHYCRSLRFDDKPDYAYLKRLFRDLFIREGFQFDYVFDWTILKYQQSQISTPPPRHHGPVVGPSSALPPAITSAERPSGGDEARPSGWSSGIPRRNSGQIFNSGSLAKQKAPVSSDPAISKDVVLSSSSFLRATGSSRRAAVSSSREAAVLGTDSEPSNPQIVEAGSGSNSKIPVSRNSPIVSSEINKLSSPSRATTSVMKNYEANLKGIESLHF | not failed |
| MEPSSLVLALEQTSEVLGKEPIVPFAILLVVLLVVPILFERLRLPGIVGLVLSGLVLGPSGWNLFHTKSPMISLLSDIGLVYLMFVAGLEVDLELWRRRQRRALGFGCVSFTIPLLIGTLVGRFFHFGWNTSVLIGSLLTSYSLLAYPIINRLGVISNQAVTITIGATVFTDISALIVLAICIPAFQMGMSNIYQILSLLGWLIIYSIVILVGFDWAGREFFRRSGDDEGNKFLFVLLTVFLAVVVAQLIGIEKILGAFLAGLAVNEAVGEGPVKEKIVFVGSVLFIPIFFINLGLLIDLPGLVNSLFTLQLTSLIVISLVASKFIAAWLAKVFYGYSWQEMLTMWSLSIPQVGTTLAATFVGYHTGLLSSAVLTSVVILMLITATLGPLITSRTARALTTVSITESVDANLPEPQVIETQNGNFTIVVPIYNPHTQQYLVEMAALLAHQAQGRIIPLTIATAAAHMDAPQLESTLQRSERLLAKATSQSQALGVAASPLLRIDDASAPGISRAAREQKANLIVMGWGKRTGLRARLFGNVIDNVLWSSHCPVAVTRLVESPKKIQRILVPVENLITPTLQPVQFAQMLAEANQAQVTVLNVCDRRTSSSKIASRRSQLALLVSKLALPNSPEVQIIAHENAAQAILQAARLYDLVVLPFIRNRTSPGGLALSDVTTQLASQLTCSIVMLGEPQRLQTGNITSVAPNTTTAV | failed |
| MEQHHVRSLLKPSAYPDPTGSVELVQTHVSYIFLTDNFAYKVKKPVDFGFLNFSTPDRRRFYCEEEVRLNRRLCPDIYLGVAEVRDTPAGAAFVGEGQVIDHAVKMKRLPADRMLDRLLSAGLAGEPEIRAVARVVGTFHLEAEHSSEIDAFGDLATINANWVENFQQTRPYCGITLSAGDHDFIRGWVERFMAERVDLFAARVGDGRIRDGNGDIHMENICLGADGRVCIFDCIEFNNRFRYGDTAADIAFLLMDFDFVLRPDLGAAFLDEYTRITNDASVVEMIDFYKVYRAFVRGKVESMRLSDPQIPENEKQAAAARASRYFRLARGYAVRQGLPPTLFITCGLTGTGKSRLSRELSLDLGLEIASSDVVRKELAGLRSTERPDQDYGAGIYTDRFSLLTYGELERRARVALEGGRSIVVDATFRRRADRERFGALARDAGATFVILHAVCPEPTIRSRLNSRQKDRSEPSDGTWEVYLRQKDEFDPPSDQEGNLLCIDTSDTASAMVDKVLHGLELLPCGKS | failed |
